Test: label from the status in PepcDB records

Row | Sequence | protein production
1 | MSQTLFWIAAACALAYLAMTARPASLMRSAVKTASVALLALMVLVSGGPVLLVLALALCALGDWLLSRETEATFMAGVGAFAAGHLAYVALFLTHPASDTGQLAAQWPLVAGLAALGLVMASLLAPRAGDLKGPVLAYVPIILGMGLAALTLPQAGVLAWVLPAAAAFIASDMILATEKFLLPPGHPALRLTPYLVWPLYWGAQMGFALALT | failed
2 | MSQWTTVCKLDDILPGTGVCALVEQQQIAVFRPRNDEQVYAISNIDPFAQASVLSRGIVAEHQDDLWVASPLKKQHFRLYDGFCLEDGAYSVAAYDTQVTNGNVQISIADSDVAVDNSQPLPLEHHHHHH | not failed
3 | MSRDLGRLLKIASNQMSTRFDIFAKKYDLTGTQMTIIDYLSRNKNKEVLQRDLESEFSIKSSTATVLLQRMEIKKLLYRKVSGKDSRQKCLKLTKKANKLETIILSYMDSDQSQMTSGLNKEEVVFLEKILKRMIESD | not failed
4 | MSRDTVRPPCVHPGFARPLPARASLPFLGRVSPGDSSRRAGRDGRKWGMESGPAIFAGTVFALFGGGLLTWTVSRVRHRAPVAHDVNPVASATLAGLAAVSALVLGAWCFTHL | failed
5 | MSRENNVQSTRAERKTLILALVAGMCSDALLSWLTMSSVPFSLFALIALVLSAQMLYQEYLAHPVAEEVPLVGLACFFVGAFGHSAFIKAQYPQEGSNFFSIVIVLLLIFWIGRKLGYIGKPR | failed
6 | MSRFPRRFIDDSSMEDAGISLCPSIHYRPINPNDLDRLEQIHRDIFPIKYESEFFQSVVNGVDIVSWAAVDRSRPDDHSDELIGFVTAKFVLAKDSEIDDLIHYDSSKGEETLIYILTLGVVETYRNRGIAMSLISEVIKYASGLSVCRGVYLHVIAHNNAAICLYKRLMFRCVRRLHGFYLINRHHFDAFLFVYFINGSRTPCSPLEVAMFVVNYMKSGIKSVASKLANKDEKGLKWLFCKDTDCV | failed
7 | MSRKRSTKPKPAAKIALKKENDQFLEALKLYEGKQYKKSLKLLDAILKKDGSHVDSLALKGLDLYSVGEKDDAASYVANAIRKIEGASASPICCHVLGIYMRNTKEYKESIKWFTAALNNGSTNKQIYRDLATLQSQIGDFKNALVSRKKYWEAFLGYRANWTSLAVAQDVNGERQQAINTLSQFEKLAEGKISDSEKYEHSECLMYKNDIMYKAASDNQDKLQNVLKHLNDIEPCVFDKFGLLERKATIYMKLGQLKDASIVYRTLIKRNPDNFKYYKLLEVSLGIQGDNKLKKALYGKLEQFYPRCEPPKFIPLTFLQDKEELSKKLREYVLPQLERGVPATFSNVKPLYQRRKSKVSPLLEKIVLDYLSGLDPTQDPIPFIWTNYYLSQHFLFLKDFPKAQEYIDAALDHTPTLVEFYILKARILKHLGLMDTAAGILEEGRQLDLQDRFINCKTVKYFLRANNIDKAVEVASLFTKNDDSVNGIKDLHLVEASWFIVEQAEAYYRLYLDRKKKLDDLASLKKEVESDKSEQIANDIKENQWLVRKYKGLALKRFNAIPKFYKQFEDDQLDFHSYCMRKGTPRAYLEMLEWGKALYTKPMYVRAMKEASKLYFQMHDDRLKRKSDSLDENSDEIQNNGQNSSSQKKKAKKEAAAMNKRKETEAKSVAAYPSDQDNDVFGEKLIETSTPMEDFATEFYNNYSMQVREDERDYILDFEFNYRIGKLALCFASLNKFAKRFGTTSGLFGSMAIVLLHATRNDTPFDPILKKVVTKSLEKEYSENFPLNEISNNSFDWLNFYQEKFGKNDINGLLFLYRYRDDVPIGSSNLKEMIISSLSPLEPHSQNEILQYYL | failed
8 | MSRKRTENGSESGPATSHVPVDRFGFLKQEHANSPERFSKSKTTSSTDHDREERKVRKWRKMIGVGGSDWKHYVRRKPNVVRRRIRKGIPDCLRGLVWQLISGSRDLLLMNPGVYEQLVIYETSASELDIIRDISRTFPSHVFFQKRHGPGQRSLYNVLKAYSVYDRDVGYVQGMGFIAGLLLLYMSEEDAFWLLVALLKGAVHAPMEGLYHAGLPLVQQYLFQLESLVKELIPKLGEHFTQEMINPSMYASQWFITVFSYSFPFPLALRIWDVFLSEGVKIVFKVGLALLKYCQDELVSKVTV | failed

Reference: a protein production outcome set (Wang et al. 2014)
